Results taken from the Immune Epitope Database (IEDB).

Experiments:
Settings in all cases: source organism: Vibrio vulnificus YJ016
HLA-C*03:03 = assay: IEDB peptide-MHC binding, purified MHC/direct/fluorescence; filed as Kd, often an IC50 or EC50 that approximates it; ≥ and ≤ were set here for values at or beyond the usual limits of such assays
HLA-C*06:02 = assay: IEDB peptide-MHC binding, purified MHC/competitive/fluorescence; filed as Kd, often an IC50 or EC50 that approximates it; ≥ and ≤ were set here for values at or beyond the usual limits of such assays
HLA-B*45:06 = assay: as above
HLA-C*04:01 = assay: as above
HLA-B*40:13 = assay: as above
HLA-B*15:42 = assay: as above
HLA-B*83:01 = assay: as above
HLA-C*14:02 = assay: as above
HLA-B*27:20 = assay: as above
HLA-A*03:01 = assay: as above

Work on KMFNRASYF yielded a Kd (HLA-C*03:03) of 2.72 µM, a Kd (HLA-C*06:02) of 0.068 µM and a Kd (HLA-B*45:06) of no less than 5 µM. The Kd (HLA-C*04:01) was 0.304 µM, the Kd (HLA-B*40:13) was 0.0024 µM and the Kd (HLA-B*15:42) was no less than 5 µM. For the same sequence, the Kd (HLA-B*83:01) was no less than 5 µM, the Kd (HLA-C*14:02) was 0.004 µM and the Kd (HLA-B*27:20) was 0.0012 µM. It also gave a Kd (HLA-A*03:01) of 0.0048 µM.
